Results on 1 molecule are retold here after patent US9259432B1, “Composition and methods for targeted delivery of a therapeutic compound to the brain or spinal cord of a subject for treatment of neurodegenerative diseases” (Parminder J. S. Vig, priority 2011, dated 2016).

Common to all, as to assay type: cell-based
For test [1], the system named is differentiated GFP-ATXN1[82Q] SHSY5Y cells. Description: Oxyblot of S100B induced oxidized proteins. Particulars: 5 μM S100B 2 hrs; compared to GFP-ATXN1[30Q] cells. The method, then: FIG. 16: (a) GFP-ATXN1[82Q] and (b) GFP-ATXN1[30Q] SHSY5Y stable cells were placed on 12-well plates and subjected to treatment with 25 nM TPA for 3 days to produce differentiated SHSY5Y cell lines. Next, the cells were pretreated with 50 μM Synb1-ELP-TRTK for 1 hr then treated with 5 μM S100B for 2 hrs or treated with 150 μM H2O2 for 2 hrs, where control cells were treated with serum free media for 3 hrs. Then the cells were lysed and analyzed with the Oxyblot kit and a β-tubulin antibody. Shown is the resulting oxyblot/western blot data. (c) Optical densities of the protein bands were taken using ImageJ software. Graphs shown the ratio of oxidized protein/β-tubulin protein normalized to the control. Statistics were taken using the student's t-test. * GFP-ATXN1[82Q]: S100B vs Synb1-ELP-TRTK+S100B, P<0.05. ψ GFP-ATXN1[82Q]: H2O2 vs GFP-ATXN1[30Q]: H2O2, P<0.05.
GFP-ATXN1[82Q] or GFP-ATXN1[30Q] stable cells were placed on 12-well plates at a concentration of 60,000 cells per well. Cells were treated with 25 nM TPA for 3 days to produce differentiated SHSY5Y cell lines. […] Cell lysates were analyzed with the Oxyblot kit according to manufacturer's protocol ([…]) and with a β-tubulin antibody (Sigma), where 5 μgs of protein was loaded in each well of 4-20% acrylamide gel (Bio-Rad Laboratories, Hercules, Calif., USA). […]

Test [2] concerns differentiated GFP-ATXN1[30Q] SHSY5Y cells. Description: Neurite changes after S100B treatment, normal ataxin-1 cells. As to conditions: 3.0 μM S100B 48 hrs, vs untreated.
Test [3] deals with differentiated GFP-ATXN1[82Q] SHSY5Y cells. Description: Neurite changes after S100B treatment, mutant ataxin-1 cells. Particulars: 3.0 μM S100B 48 hrs, vs untreated. The protocol: FIG. 15: GFP-ATXN1[82Q] SHSY5Y stable cells were placed on 2-well slides and subjected to treatment with 25 nM TPA for 3 days to produce differentiated SHSY5Y cells. Next, slides were fixed and probed with (a &b) GFP, (a) Synaptophycin and (b) RAGE antibodies and fluorescent secondary antibodies Alexa 488 and Alexa 546 followed by DAPI staining. Scale Bars: […]. Differentiated SHSY5Y cells were treated with 3.0 μM S100B for 48 hrs and neurite changes were visualized under the microscope. (c) Data is shown as MEAN±STDEV of the percentage of cells with neurites, n=100. (d) Data is shown as MEAN±SE of neurite length, n=100. Statistics were taken using student's t-test. *P<0.05.
SHSY5Y cells (Invitrogen, Carlsbad, Calif., USA) were maintained in DMEM/F12 media (Fisher, Houston, Tex., USA) supplemented with 15% FBS, penicillin-streptomycin (Sigma), and grown in an incubator at 37° C. in the presence of 5% CO2. S100B was labeled with Alexa 488 labeling kit (Invitrogen) to produce 488-S100B. […] Next, cells were washed then treated with 1 μM 488-S100B for 3 hrs and S100B uptake was analyzed by Epi-fluorescence or by Beckman Cytometric FC 500 flow cytometer as previously described (Bidwell et al., 2009). For flow cytometry experiments, 488-S100B uptake was measured by quenching extracellular fluorescence by coating the cells with Trypan Blue (Fisher) as described previously (Bidwell et al., 2009). […]

B1: S100B: glial secreted EF-hand calcium binding protein, purchased from Sigma-Aldrich; applied to cells as neurotoxic stimulus (protein, UniProt P04271 2-92, looked up)
Protein S100-B: SELEKAMVALIDVFHQYSGREGDKHKLKKSELKELINNELSHFLEEIKEQEVVDKVMETLDNDGDGECDFQEFMAFVAMVTTACHEFFEHE
With B1, the “level of oxidized proteins after S100B treatment” value in test [1] is “greater level of oxidized proteins”. Besides, the “effect on neurites (percentage of cells with neurites, neurite length)” value in test [2] is on record as “no significant effect”. Moreover, in test [3], the neurite length result is “significantly reduced” and the “percentage of cells with neurites” value is listed as “significant reduction”.
